{
  "source": "the supplement of paper PMC12636428",
  "data": [
    {"test_system": "Saccharomyces cerevisiae", "assay": "transcriptional activation domain activity (GFP:mCherry ratio, weighted mean of sorted bins, harmonized to initial dataset scale) (arbitrary fluorescence ratio units); higher = stronger transcriptional activation", "details": "beta-estradiol 1 µM; induction time 4 h", "in_short": "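After a 1:5 dilution into SC with 1 uM beta-estradiol and 4 hours at 30 °C, yeast diploids carrying a GFP reporter and URA3-integrated barcoded tiles were sorted into 8 bins by GFP:mCherry ratio. The tiles were fused to an estradiol-inducible synthetic transcription factor. Barcodes were sequenced, tiles below 50 reads were discarded, and activation activity was taken as the read-weighted mean of bin median fluorescence, averaged across barcodes and linearly mapped onto the initial dataset scale.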", "values": [
      {"sequence": "NSLYLLPTAMTGEKPVADPLTLIRYILVWFPHIWCVICIHCHWPYFLFLNLTD", "transcriptional activation domain activity": 78400},
      {"sequence": "NSSEEEDRNRRERKRKREKEREKKKESRRHRSRSRRSKEVEDDDEKDRKRHRR", "transcriptional activation domain activity": 14500},
      {"sequence": "NSSNNNNNNNIISNRKQASKEKRKIPRHIQTIDEKLINDSNYLAFLKFDDLEN", "transcriptional activation domain activity": 83500},
      {"sequence": "NSSSNNNVSTVPSSMMHSSTLNGTSGLGGDNDDNMLALSLATLANSATASPRL", "transcriptional activation domain activity": 27900},
      {"sequence": "NSSVYETVTRNLHDDLLGGSLNLKVILEMLLAHVIVNPSLVLEPAASLLRRNG", "transcriptional activation domain activity": 58200},
      {"sequence": "NSTIHNLFEVVLLPDLCGFCCFSMRFVVLIDLIGTLTLPVSVVYLVYLIYVIA", "transcriptional activation domain activity": 46800},
      {"sequence": "NSTIHNLLELVLLPELCGFCCFSMRFVVMIDLIGTLTLPSSVVYLVYLIYVVI", "transcriptional activation domain activity": 56700},
      {"sequence": "NSTIHNLLEVVLLPDLCGFCCFSMRFVVLLDLIGTLTLPVTCLYLIYLIYVIA", "transcriptional activation domain activity": 52100},
      {"sequence": "NSTIPLDFMPRDALHGFDWSEEDDMSDGLPFLKTDPNNNGFFGDGSLLCILRS", "transcriptional activation domain activity": 109000},
      {"sequence": "NSTPAKVEEEAEAKPEEAKPEGEEVAKEEEEKKDEEPKPAIGDVVPDAVAVGQ", "transcriptional activation domain activity": 25300},
      {"sequence": "NSTVHNLIELIPLQQLCGFCCFSMRFVVFLDLLSTVVQPVIVGYIVYLIVILT", "transcriptional activation domain activity": 60200},
      {"sequence": "NSVPGSPETPTSSSLDGSRETGYLRVRVVSAKDLAARMRSRTATCSASAGSPL", "transcriptional activation domain activity": 42100},
      {"sequence": "NSWLCGFQGIALMYLVLLLLCFGVLLIANLHFLSVYRSTWLQIHMTPMIVLSF", "transcriptional activation domain activity": 57400},
      {"sequence": "NTCCCFFVCSFPSSKQKTLGALREGSWTFFFCFFLFFFLFFLVFFCFFLFCFF", "transcriptional activation domain activity": 24000},
      {"sequence": "NTDTYILFLFPFFWASNWFYTYQQNCYQLFYFNLRGRTFTNLWYWLAQIFGAL", "transcriptional activation domain activity": 72900},
      {"sequence": "NTLDVSEGNQVINESASTNTSSALNCQSYTNNQDIMDILFQVTSGSVWDEFFV", "transcriptional activation domain activity": 149000},
      {"sequence": "NTLSRTKAYMTFILAFVAITSIVRFTGSTLYLIARFLLGKRAWITYLIYVYLY", "transcriptional activation domain activity": 52700},
      {"sequence": "NTMQFSMNLGNSTVSGPFSGLVNGLTPKGTNMEPSLWASWSYYALWLPTWGTT", "transcriptional activation domain activity": 52100},
      {"sequence": "NTPPAKKKRDGKKKAAAAGDMGEGEGGGKKVRKPRKDAGTKRGPNKRTAGATG", "transcriptional activation domain activity": 41100},
      {"sequence": "NTTTPDAAEGDAEGEDSASASGSGSEGKGGEGEEKTGKKGKKGRKGKLLQRLK", "transcriptional activation domain activity": 29500},
      {"sequence": "NTVWLILNDITIGIAFGTFLCENHLILAAYVNYTIEKLLIKEIQWILGWLDSW", "transcriptional activation domain activity": 84200},
      {"sequence": "NTWLLFRQVVDVILLNDFVAYCMFAFSCFRVPEGLSLAVHIMRWVAGIALIAF", "transcriptional activation domain activity": 56200},
      {"sequence": "NTWLQQLQDELNGSYSLTDNVNTPIDPSLSDLGVTSASPLAGNSPGLPPEEVR", "transcriptional activation domain activity": 92100},
      {"sequence": "NVLDASSVIARRAVETGGRNVPRGAAGGGAPRNRARGFELEIGNATLLGRRHN", "transcriptional activation domain activity": 29200},
      {"sequence": "NVLLLGLLGWLIRLVHNSEPTLVLKKLCSTLVTYFTRQSFRWRRCIKHLVCAF", "transcriptional activation domain activity": 39900},
      {"sequence": "NVLYSRLSILSSLITLSWFLTAHILEYTSIHTCRFSSPHIWWLTFGILCIMYL", "transcriptional activation domain activity": 51600},
      {"sequence": "NVQPTANAASANAAAAAAAAASNSYAIPENELLDEDTMNFISSLKNDLSNISN", "transcriptional activation domain activity": 59700},
      {"sequence": "NVRLQVDQCAFVLEHCADATPGLINYIQWYYCSSTKPIVFILMCFWLLFLFGF", "transcriptional activation domain activity": 40400},
      {"sequence": "NVRYITNLSFTSDSVYKFLLFYPLFLIMTEPIIQLLGIYLAYIYGLIYLILTS", "transcriptional activation domain activity": 55800},
      {"sequence": "NVSDAPRIEPLPSLNDDDIEKILQPNDIFTTDRTDASTTSSTAIEDIINPSLD", "transcriptional activation domain activity": 61300},
      {"sequence": "NVSPGTTDAGPWMRAIEELAGTGVYEHLGYGWKGWLFWLRDRSFCNMLMTGIW", "transcriptional activation domain activity": 54200},
      {"sequence": "NWHHSIQVPYSFVANYDHPVCHMLHRWLPLYIPAVALRMHILTYLLLVAFFSL", "transcriptional activation domain activity": 57700},
      {"sequence": "NWNKYNWLIIAILSNFTSWFFHVWHHKLYSAFHDTSRIKNWNLFKTIQFWLFI", "transcriptional activation domain activity": 45300},
      {"sequence": "NWYFLGTTMYFLYGESVIYYFKHIVLVDKVLLPFATHHRFISFMLYVIGFVFF", "transcriptional activation domain activity": 59100},
      {"sequence": "NWYKHINWLNTFFVVIMPMLGFIAAYWVPLHRYTALFAIFYYVHCGLGITAGY", "transcriptional activation domain activity": 68500},
      {"sequence": "NWYWLASTMYFLYGESVIYYFKHIVLVDKVLLPLATHHRFISFVLYVIGFVFF", "transcriptional activation domain activity": 74800},
      {"sequence": "NWYWLATTMYFLYGESVVYYLKHIVLVDKVLLPLATHHRFISFILYVFGFVFF", "transcriptional activation domain activity": 46100},
      {"sequence": "NWYWLATTMYFLYGETVIYYFKHIVLVDKVLLPLATHHRFISFILYVFGFVFF", "transcriptional activation domain activity": 58300},
      {"sequence": "NYVMLCSVYTTVHIHKHGRDAWKLMIRERSWKYILFAMADLQGNLFVLYAFRN", "transcriptional activation domain activity": 59300},
      {"sequence": "PAAAAQAPPAAGGKKEEAAAAEVPQAEAAAEGAGSPEGEGKDAQAEAAAPAEG", "transcriptional activation domain activity": 16800},
      {"sequence": "PAAATPAVSIGLIYLIIMAFFSFSFFLPIHMKYIQPQGHPPLHFWQLIIWRWL", "transcriptional activation domain activity": 52700},
      {"sequence": "PAADKSDAPRKPVSISIGGGAKKAEEAKPEPAKAASEGPAPAGGVAAVKAAAA", "transcriptional activation domain activity": 39300}
    ]}
  ]
}
